Data published in US20230303685A1 (ELECTRA THERAPEUTICS, published 2023).
One block for each binder: values may come before it.

Tests used:
[1] = molecular target: T1, Human SIRPβ1/DAP12 CHO; assay: flow cytometry, stably transfected CHO cells, antibody titrated, labelled anti-human IgG, MFI
T1 construct: also called human SIRPβ1 on CHO cells co-transfected with DAP12; copies: 1 + 2
Procedure: (§1) Selected antibodies were tested for binding to stably transfected human SIRPα, SIRPβ1 (co-transfected with DAP12), or SIRPγ Chinese hamster ovary (CHO) cells via flow cytometry. A titration of SIRP antibodies was added to the cells and detected using a fluorescently labelled secondary antibody. Graph depicts the median fluorescence intensity (MFI) at each concentration.

[2] = molecular target: T2, Human SIRPγ CHO; assay: as above
T2 construct: also called human SIRPγ on CHO cells
T2 chain: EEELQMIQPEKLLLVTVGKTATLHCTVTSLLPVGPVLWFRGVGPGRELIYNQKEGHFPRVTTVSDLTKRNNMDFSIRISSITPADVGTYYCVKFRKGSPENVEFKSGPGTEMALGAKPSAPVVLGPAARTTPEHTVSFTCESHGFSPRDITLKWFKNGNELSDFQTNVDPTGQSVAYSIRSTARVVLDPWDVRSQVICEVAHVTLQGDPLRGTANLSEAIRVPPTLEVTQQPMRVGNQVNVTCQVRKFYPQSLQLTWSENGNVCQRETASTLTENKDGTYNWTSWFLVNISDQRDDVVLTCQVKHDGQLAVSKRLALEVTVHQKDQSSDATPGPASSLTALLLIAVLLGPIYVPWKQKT
Procedure: as §1

[3] = molecular target: T3, Human SIRPβ1; assay: ELISA, extracellular domain coated at 2 µg/mL, purified antibody titrated, anti-human IgG, chemiluminescence
T3 construct: also called human SIRPβ1 extracellular domain, plate-coated
T3 chain: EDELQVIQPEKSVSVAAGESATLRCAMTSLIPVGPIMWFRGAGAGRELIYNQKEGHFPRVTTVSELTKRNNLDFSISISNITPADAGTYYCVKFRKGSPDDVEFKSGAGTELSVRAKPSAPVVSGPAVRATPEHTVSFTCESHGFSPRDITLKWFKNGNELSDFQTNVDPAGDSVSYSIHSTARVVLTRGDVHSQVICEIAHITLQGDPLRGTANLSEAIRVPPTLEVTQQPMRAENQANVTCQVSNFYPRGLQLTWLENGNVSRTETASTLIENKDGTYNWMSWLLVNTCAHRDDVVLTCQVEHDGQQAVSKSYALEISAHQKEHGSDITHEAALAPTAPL

[4] = molecular target: T4, human SIRPα V1 extracellular domain, monomeric (human, UniProt P78324 31-373); assay: as above
T4 construct: also called hSIRPα V1

[5] = molecular target: T5, Cynomolgus Monkey SIRPγ (Macaca fascicularis); assay: as above
T5 construct: extracellular domain; also called cyno SIRPγ extracellular domain, plate-coated

[6] = molecular target: T6, Human SIRPγ; assay: as above
T6 construct: also called human SIRPγ extracellular domain, plate-coated
T6 chain: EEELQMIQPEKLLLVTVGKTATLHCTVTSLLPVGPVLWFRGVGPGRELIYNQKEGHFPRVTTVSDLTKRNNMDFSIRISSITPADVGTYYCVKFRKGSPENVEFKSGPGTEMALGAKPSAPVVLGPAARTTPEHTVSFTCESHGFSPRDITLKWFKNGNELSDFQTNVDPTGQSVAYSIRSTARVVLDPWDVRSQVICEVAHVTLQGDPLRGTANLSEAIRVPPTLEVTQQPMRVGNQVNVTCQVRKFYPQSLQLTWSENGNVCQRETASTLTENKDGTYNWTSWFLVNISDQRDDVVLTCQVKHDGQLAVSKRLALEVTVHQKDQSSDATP

[7] = molecular target: T7, human SIRPα V1-His monomer (human, UniProt P78324 31-373, limits assumed); assay: BLI (Octet); antibody on anti-mouse IgG capture tip, SIRP-His monomer at 100, 33.3, 11.1 nM, 1:1 fit, mean KD
T7 construct: 'SIRP-His monomer protein' of the Octet assay; also called SIRP-His; not shown: His tag
Procedure: (§2) Select SIRP antibodies were tested for their affinities to human SIRPα, SIRPβ1, and SIRPγ using a biolayer interferometry (BLI) Octet system (Pall ForteBio). Each SIRP antibody with rat or mouse Fc was immobilized on a biosensor tip by an anti-mouse IgG capture (AMC). Antibodies with human Fc were digested with gingipain K enzyme to yield monomeric F(ab′), biotinylated, then coated onto streptavidin biosensors. […] The biosensors were then exposed to wash buffer to measure off-rate kinetics. The resulting kinetic data were analyzed and fitted using a 1:1 binding model with kₒₙ and kdis fitted separately at each SIRP-His protein concentration. KD affinities were calculated as kdis to kₒₙ ratio at each concentration of SIRP-His and averaged.

[8] = molecular target: T8, human SIRPγ-His monomer (human); assay: as above
T8 construct: 'SIRP-His monomer protein' of the Octet assay; also called SIRP-His; not shown: His tag
Procedure: as §2

[9] = molecular target: T1, Human SIRPβ1/DAP12 CHO; assay: flow cytometry, stably transfected CHO cells, antibody titrated, labelled anti-rat or anti-mouse IgG, MFI
Procedure: as §1

[10] = molecular target: T2, Human SIRPγ CHO; assay: as above
Procedure: as §1

[11] = molecular target: T4, human SIRPα V1 extracellular domain, …; assay: ELISA, extracellular domain coated at 1 µg/mL, purified antibody titrated, anti-rat IgG, chemiluminescence
Procedure: (§3) Select SIRP antibodies were purified by Protein G from hybridoma supernatants and analyzed in a titration via ELISA. Briefly, 1 μg/mL of extracellular domain SIRPα was coated onto high protein-binding plates and blocked. Purified antibodies were added in a titration to the coated plates. The antibodies were detected by an anti-rat IgG antibody and a chemiluminescent substrate.

[12] = molecular target: T5, Cynomolgus Monkey SIRPγ; assay: ELISA, extracellular domain coated at 2 µg/mL, purified antibody titrated, anti-rat or anti-mouse IgG, chemiluminescence
Procedure: as §3, with “2” for “1”, “of each of the SIRPs” for “SIRPα”, “IgG or an anti-mouse IgG” for “IgG”

[13] = molecular target: T6, Human SIRPγ; assay: as above
Procedure: as §3, with “2” for “1”, “of each of the SIRPs” for “SIRPα”, “IgG or an anti-mouse IgG” for “IgG”

[14] = molecular target: T4, human SIRPα V1 extracellular domain, …; assay: as above
Procedure: as §3, with “2” for “1”, “of each of the SIRPs” for “SIRPα”, “IgG or an anti-mouse IgG” for “IgG”

[15] = molecular target: T3, Human SIRPβ1; assay: ELISA, extracellular domain coated at 2 µg/mL, undiluted hybridoma supernatant, anti-rat or anti-mouse IgG, chemiluminescence
Procedure: Briefly, 2 μg/mL of the extracellular domain of each of the SIRPs was coated onto high protein-binding plates and blocked. Supernatants were added undiluted to coated plates. The antibodies were detected by anti-rat or anti-mouse IgG antibodies and a chemiluminescent substrate. […] The data depict the relative luminescence units read by a plate-reader capable of detecting chemiluminescence.

[16] = molecular target: T9, Human SIRPγ conjugated to an Fc region (human); assay: BLI blocking; 200 nM antibody pre-incubated with 20 nM SIRPγ-Fc, binding to immobilised CD47-His (competitor), % of response of SIRPγ-Fc alone
T9 construct: also called SIRPγ-Fc; SIRP-Fc; not shown: Fc region

[17] = molecular target: T4, human SIRPα V1 extracellular domain, …; assay: SPR (Biacore); antibody captured by anti-IgG on chip, monomeric SIRPα extracellular domain as analyte, 1:1 model
Procedure: (§4) Selected antibodies were tested for their affinities to two hSIRPα variants (V1 and V2), and to cynomolgus monkey (herein referred to as “cyno”) SIRPα. The affinities of these SIRP antibodies were determined using surface plasmon resonance. The SIRP antibodies were flowed onto a chip and captured by an anti-mouse IgG or an anti-human IgG covalently coupled to the surface of the chip. A three-point titration of the extracellular binding domain of hSIRPα was performed per the manufacturer's recommended protocols.

[18] = molecular target: T10, human SIRPα V2 extracellular domain, monomeric (human, UniProt P78324 31-370); assay: as above
T10 construct: also called hSIRPα V2
Procedure: as §4

[19] = molecular target: T11, cynomolgus monkey SIRPα extracellular domain, monomeric (cynomolgus monkey, UniProt A0A2K5VYQ9 31-372); assay: as above
T11 construct: extracellular domain; also called Cyno SIRPα
Procedure: as §4

[20] = molecular target: T6, Human SIRPγ; assay: ELISA, extracellular domain coated at 1 µg/mL, purified antibody titrated, anti-human IgG, chemiluminescence
Procedure: as §3
FIGS. 3A-3C show binding curves of SIRP antibodies and two isotype controls with human Fc to human SIRPα V1, human SIRPβ1, human SIRPγ and cynomolgus monkey SIRPα by ELISA. […] Isotype control 1 was an unrelated human IgG1 antibody with irrelevant CDRs. Isotype control 2 was the same as isotype control 1 but contained the same amino acid substitutions in the Fc region as some of the selected SIRP antibodies for increased FcγR binding (referring to Table 11). DNA was transiently transfected into CHO cells for 7 days. Antibodies were purified by Protein A from cell supernatants and analyzed in a titration via ELISA as previously described in FIGS. 2A-2B using an anti-human IgG antibody as the detection antibody.

[21] = molecular target: T12, Cynomolgus Monkey SIRPβ1 (Macaca fascicularis); assay: ELISA, extracellular domain coated at 2 µg/mL, purified antibody titrated, anti-human IgG, chemiluminescence
T12 construct: extracellular domain; also called cyno SIRPβ1 extracellular domain, plate-coated

[22] = molecular target: T11, cynomolgus monkey SIRPα extracellular …; assay: as above

T1 sequence (DAP12, as listed by the source limits assumed): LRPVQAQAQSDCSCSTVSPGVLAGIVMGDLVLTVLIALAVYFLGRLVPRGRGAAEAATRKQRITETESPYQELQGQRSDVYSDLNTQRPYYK

EC50 (read off the curve) [1]: ~0.3 µg/mL
EC50 (read off the curve) [2]: ~0.2 µg/mL
EC50 (read off the curve) [3]: ~0.03 µg/mL
EC50 (read off the curve) [4]: ~0.03 µg/mL
EC50 (read off the curve) [5]: ~0.03 µg/mL
EC50 (read off the curve) [6]: ~0.02 µg/mL
B1: Antibody 32 (antibody, V domains shown)
VH: QVQLQESGPGLVKPSGTLSLTCAVSGGSISSSNWWSWVRQPPGKGLEWIGEIYHSGNTNYNPSLKSRVTISVDKSKNQFSLKLSSVTAADTAVYYCAREGIEGYYFYYGMDVWGQGTTVTVSS
VL: DIQLTQSPSFLSASVGDRVTITCRASQGISGYLDWYQQKPGKAPKLLIYAASTLQRGVPSRFSGSGSGTDFNLTISSLQPEDFATYYCQQFTSDLITFGQGTRLEIK
notes: same variable regions as Antibodies 3 and 24

Kd [7]: 46.1 nM
Kd [8]: 24.1 nM
binding result [9]: binds
EC50 (read off the curve) [10]: ~0.1 µg/mL
EC50 (read off the curve) [11]: ~0.05 µg/mL
EC50 (read off the curve) [12]: ~0.07 µg/mL
EC50 (read off the curve) [13]: ~0.05 µg/mL
EC50 (read off the curve) [14]: ~0.06 µg/mL
binding result [15]: binds
SIRPγ-CD47 Response (%) [16]: -6.94%
B2: Antibody 4 (antibody, V domains shown)
VH: QVQLQESGPGLLKPSETLSLTCAVSDYSISSGYYWGWIRQPPGKGLEWIGSIYHSGNTYYNPSLKSRVTILVDTSKNQFSLKLSSVTAADTAVYYCARDKCSTTTCSFDYWGQGTLVTVSS
VL: DIQMTQSPSSLSASVGDRVTITCQASQDFSNYLNWYQQKPGKAPKLLIYAASNLETGVPSRFSGSGSGTDFTFTISSLQPEDIAVYYCQQYDNLPYTFGQGTKLEIK
notes: Human variable region, rat IgG2b Fc; from hybridoma

EC50 (read off the curve) [1]: ~0.4 µg/mL
EC50 (read off the curve) [2]: ~0.3 µg/mL
Kd [17]: 311 nM
Kd [18]: 373 nM
Kd [19]: 361 nM
EC50 (read off the curve) [20]: ~0.04 µg/mL
EC50 (read off the curve) [3]: ~0.04 µg/mL
EC50 (read off the curve) [21]: ~0.04 µg/mL
EC50 (read off the curve) [22]: ~0.04 µg/mL
EC50 (read off the curve) [6]: ~0.03 µg/mL
SIRPγ-CD47 Response (%) [16]: 144%
B3: Antibody 28 (antibody, V domains shown)
VH: QVQLQESGPGLVKPSGTLSLTCAVSGGSISSSNWWSWVRQPPGKGLEWIGEIYHSGSTNYNPSLKSRVTISVDKSKNQFSLKLSSVTAADTAVYYCARRGIWFGVGPWGQGTLVTVSS
VL: DIVMTQSPLSLPVTPGEPASISCRSSQSLLHGNGFNYLDWYLQKPGQSPQLLIYLGSNRASGVPDRFTGSGSGTDFTLKISRVEAEDVGVYYCMQGLQTPRTFGQGTKVEIK
